This assay concerns the target GST-GCN5. The assay is described as follows: pull-down; GST-GCN5 (1 ug) immobilised on glutathione beads, pre-treated with DNase I and RNase H; incubated with 600 c.p.m. of in vitro translated [35S]-IN proteins in 0.2 mg/ml ethidium bromide; SDS-PAGE and phosphoimaging; bound protein as percent of radiolabeled input.

Sequence of GST-GCN5 (Q92830 2-837): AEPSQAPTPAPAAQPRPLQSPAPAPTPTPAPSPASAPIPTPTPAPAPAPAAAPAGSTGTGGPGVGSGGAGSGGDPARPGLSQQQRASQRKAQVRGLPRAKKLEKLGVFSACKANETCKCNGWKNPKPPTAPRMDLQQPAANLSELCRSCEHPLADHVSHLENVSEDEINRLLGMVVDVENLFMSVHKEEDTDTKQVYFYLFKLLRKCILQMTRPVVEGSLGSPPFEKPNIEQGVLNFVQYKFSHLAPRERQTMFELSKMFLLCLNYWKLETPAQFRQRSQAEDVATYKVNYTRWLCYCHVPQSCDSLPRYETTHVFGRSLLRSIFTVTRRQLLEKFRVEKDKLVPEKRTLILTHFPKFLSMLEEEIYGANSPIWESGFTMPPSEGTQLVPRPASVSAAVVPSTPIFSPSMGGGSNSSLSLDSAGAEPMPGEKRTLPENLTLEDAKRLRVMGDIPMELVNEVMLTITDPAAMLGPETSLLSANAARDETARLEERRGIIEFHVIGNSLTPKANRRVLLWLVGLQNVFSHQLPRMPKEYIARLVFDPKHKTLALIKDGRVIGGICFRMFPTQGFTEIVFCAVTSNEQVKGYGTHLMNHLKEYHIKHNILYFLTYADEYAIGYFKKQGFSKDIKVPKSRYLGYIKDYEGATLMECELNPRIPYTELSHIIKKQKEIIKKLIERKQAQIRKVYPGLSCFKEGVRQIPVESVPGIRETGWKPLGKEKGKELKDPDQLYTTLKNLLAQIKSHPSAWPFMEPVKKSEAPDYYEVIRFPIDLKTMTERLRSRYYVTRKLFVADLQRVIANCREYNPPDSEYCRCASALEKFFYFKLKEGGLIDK

On to “35S-IN fragment 1-263 (from UniProt P04585 2-264) (domain or fragment)”, for which the binding efficiency (percent of radiolabeled input bound) amounted to 13%. The figure for “35S-IN, full-length HIV-1 integrase, in vitro translated (from UniProt P04585) (enzyme)” is 16%; for “35S-IN fragment 1-272 (from UniProt P04585 2-273) (domain or fragment)” it is 13%.

Source of the values: paper PMC2848186.
